Substrate in the data set: CC(=O)N[C@H]1[C@H](Oc2ccc([N+](=O)[O-])cc2)O[C@H](CO)[C@@H](O[C@@H]2O[C@H](CO)[C@@H](O)[C@H](O)[C@H]2NC(C)=O)[C@@H]1O
The experiment in a line: purified protein. It counts as biochemical, Vibrio harveyi. The settings on record: 0.1 M sodium acetate pH 5.5, 30 °C, 10 min, 0-500 µM substrate.

From article PMC10991452, “Bioeconomic production of high-quality chitobiose from chitin food wastes using an in-house chitinase from Vibrio campbellii” (Bioresources and Bioprocessing, 2022) come the findings set out here.

B1: VhChiA (Vibrio harveyi) (protein)
chain: APTAPSIDMYGSNNLQFSKIELAMETTSGYNDMVKYHELAKIKVKFNQWSGTSGDTYNVYFDGVKVATGAITGSQTTASFEYGQGGLYQMEIEACDATGCSKSAPVEITIADTDGSHLKPLTMNVDPNNKSYNTDPSIVMGTYFVEWGIYGRDYTVDNMPVDNLTHILYGFIPICGPNESVKSVGGNSFNALQTACRGVNDYEVVIHDPWAAYQKSFPQAGHEYSTPIKGNYAMLMALKQRNPDLKIIPSIGGWTLSDPFYDFVDKKNRDTFVASVKKFLKTWKFYDGVDIDWEFPGGGGAAADKGDPVNDGPAYIALMRELRVMLDELEAETGRTYELTSAIGVGYDKIEDVDYADAVQYMDYIFAMTYDFYGGWNNVPGHQTALYCGSFMRPGQCDGGGVDENGEPYKGPAYTADNGIQLLLAQGVPANKLVLGTAMYGRGWEGVTPDTLTDPNDPMTGTATGKLKGSTAQGVWEDGVIDYKGIKSFMLGANNTGINGFEYGYDAQAEAPWVWNRSTGELITFDDHRSVLAKGNYAKSLGLAGLFSWEIDADNGDILNAMHEGMAGGVVTPPNR
As to B1, the Km (in general, the concentration of substrate that gives half-maximal velocity) was found to be 216 µM.
